Molecular target: T1, SARS-CoV-2 RBD protein L452R mutant (SARS-CoV-2, UniProt P0DTC2 319-541)
T1 construct: domain: RBD
Experiment: SPR, Biacore 8K, RBD on CM5 chip, IgG injected, 1:1 model

Binder	Kd [nM]
VacW-209 (antibody, V domains shown) VH: QVQLVESGGGVVQPGRSLRLSCAASGFTFSSIAMHWVRQAPGKGLEWVAVMSFDGSIKYYGDSVKGRFTISRDNSKSTLYLQMNSLRAEDTAVYYCARGVQGYYDRSGYYNLDYNYGMDVWGQGTTVTVSS VL: QSVLTQPPSVSGAPGQRVTISCTGSSSNIGAGYDVHWYQQLPGTAPKLLIYGNSNRPSGVPDRFSGSKSGTSASLAITGLQAEDEADYYCQSYDSSLSGWVFGGGTKLTVL	0.0237
VacW-138 (antibody, V domains shown) VH: not shown VL: AIQLTQSPFSLSASVGDRVTITCRASQGISSALAWYQQKPGKAPKLLIYDASSLESGVPSRFSGSGSGTDFTLTISSLQPEDFATYFCQQVDTYQFTFGPGTKVDIK	1.96
VacW-201 (antibody, V domains shown) VH: EVQLVESGGGLVQPGGSLRLSCAASGFTFSSYWMNWVRQAPGKGLEWVANIKQDGSEKYYVDSVKGRFTISRDNAKNSLYLQMNSLRAEDTAVYYCARMEYPYGGVDYWGQGTLVTVSS VL: NFMLTQPHSVSESPGKTVTISCTGSSGSIASNYVQWYQQRPGSAPTTVIYEDNQRPSGVPDRFSGSIDSSSNSASLTISGLKTEDEADYYCQSYDSSNRNWVFGGGTKLTVL	1.57
VacW-215 (antibody, V domains shown) VH: EVQLVESGGGLIQPGGSLRLSCAASGFTVSSNYMSWVRQAPGKGLEWVSVIYSGGSTYYADSVKGRFTISRDNSKNTLYLQMNSLRAEDTAVYYCARSTWLRGGFDYWGQGTLVTVSS VL: NFMLTQPHSVSESPGKTVTISCTGSSGSIASNYVQWYQQRPGSAPTTVIYEDNQRPSGVPDRFSGSIDSSSNSASLTISGLKTEDEADYYCQSYDSSNHFYVFGTGTKVTVL	0.714
VacW-212 (antibody, V domains shown) VH: EVQLVESGGGLVQPGGSLRLSCAASGFTFSSYWMNWVRQAPGKGLEWVANIKQDESEKYYVDSVKGRFTISRDNAKNSLFLQMNSLRVEDTAVYYCARMEYPYGGIDYWGQGTLVTVSA VL: NFMLTQPHSVSESPGKTVTISCTGSSGSIASNYVQWYQQRPGSAPTTVIYEDNQRPSGVPDRFSGSIDSSSNSASLTISGLKTEDEADYYCQSYDSSNRNWVFGGGTKLTVL	1.2
VacW-105 (antibody, V domains shown) VH: QVQLVQSGAEVKKPGSSVKVSCKASGGTFRSYTISWVRQAPGQGLEWMGRILPILGIANYAQKFQGRVTITADKSTSTAYMELSSLRSEDTAVYYCARVTGAPVESAAWFDPWGQGTLVTVSS VL: not shown	3.69

— patent CN113912709A (SHENZHEN NATIONAL CLINICAL RES CENTER FOR INFECTIOUS …, dated 2022)
